In patent US20240307538A1:
One block for each substance: values may come before it.

Legend:
[1] = target: Fc gamma receptors of NK cells; test: cell-based or functional assay
[2] = target: Fc gamma macrophage receptors; test: flow cytometry on human macrophages, hybrid 5 µg/ml, 20 h at 37°C, anti-Fc-FITC
[3] = target: Fc gamma macrophage receptors; test: flow cytometry on human macrophages, hybrid 5 µg/ml, 2 h at 37°C, anti-Fc-FITC
[4] = target: Fc gamma receptors of NK cells; test: cytofluorimetry on NK cells, 48 h at 37°C
[5] = target: Fc gamma receptors of NK cells; test: cytofluorimetry on NK cells, 30 min at 37°C
[6] = target: Fc gamma receptors of NK cells; test: cytofluorimetry on NK cells, 24 h at 37°C
[7] = target: Fc gamma macrophage receptors; test: cell-based or functional assay
[8] = target: Fc gamma receptors of NK cells; test: competition, cytofluorimetry on NK cells: labelled FcSDHFSTIE-N3-DBCO-A647 10 µg/ml with human IgG 1000 µg/ml; ratio to NEG
[9] = target: Fc gamma receptors of NK cells; test: competition, cytofluorimetry on NK cells: labelled FcSDHFSTIE-N3-DBCO-A647 10 µg/ml with human IgG 1000 µg/ml
[10] = target: Fc gamma receptors of NK cells; test: competition, cytofluorimetry on NK cells: labelled FcSDHFSTIE-N3-DBCO-A647 10 µg/ml with human IgG 1 µg/ml; ratio to NEG
[11] = target: Fc gamma receptors of NK cells; test: competition, cytofluorimetry on NK cells: labelled FcSDHFSTIE-N3-DBCO-A647 10 µg/ml with human IgG 100 µg/ml; ratio to NEG
[12] = target: Fc gamma receptors of NK cells; test: competition, cytofluorimetry on NK cells: labelled FcSDHFSTIE-N3-DBCO-A647 10 µg/ml with human IgG 10000 µg/ml; ratio to NEG
[13] = target: Fc gamma receptors of NK cells; test: competition, cytofluorimetry on NK cells: labelled FcSDHFSTIE-N3-DBCO-A647 10 µg/ml with human IgG 100 µg/ml
[14] = target: Fc gamma receptors of NK cells; test: competition, cytofluorimetry on NK cells: labelled FcSDHFSTIE-N3-DBCO-A647 10 µg/ml with human IgG 10 µg/ml; ratio to NEG
[15] = target: Fc gamma receptors of NK cells; test: competition, cytofluorimetry on NK cells: labelled FcSDHFSTIE-N3-DBCO-A647 10 µg/ml with human IgG 1 µg/ml
[16] = target: Fc gamma receptors of NK cells; test: competition, cytofluorimetry on NK cells: labelled FcSDHFSTIE-N3-DBCO-A647 10 µg/ml with human IgG 10 µg/ml
[17] = target: Fc gamma receptors of NK cells; test: competition, cytofluorimetry on NK cells: labelled FcSDHFSTIE-N3-DBCO-A647 10 µg/ml with human IgG 10000 µg/ml
[18] = target: Fc gamma receptors of NK cells; test: cytofluorimetry on NK cells, labelled Fc 10 µg/ml, 30 min at 37°C, no IgG

% expression of CD107a (NK cell degranulation) [1]: 1.8%
Substance: Fc-WT-PEG-β60-74cit (from UniProt P01857 104-330) (Fc fusion)

Macrophages (fluorescence by cytofluorimetry) [2]: 404 | Macrophages (fluorescence by cytofluorimetry) [3]: 502
Substance: Fc-LALA-β60-74cit (from UniProt P01857 104-330) (Fc fusion)

Macrophages (fluorescence by cytofluorimetry) [2]: 1000 | Macrophages (fluorescence by cytofluorimetry) [3]: 808
Substance: Fc-WT-β60-74cit (from UniProt P01857 104-330) (Fc fusion)

MFI [4]: 1710 | MFI [5]: 2970 | MFI [6]: 2350
Substance: FcSDHFSTIE-N3-DBCO-A488 (from UniProt P01857 104-330)

MFI [4]: 4340 | MFI [5]: 4590 | MFI [6]: 4090
Substance: FcSDHFSTIE-N3-DBCO-PEG3-β60-74cit-lysineA488 (from UniProt P01857 104-330) (Fc fusion)

inhibition of phagocytosis by competing human IgG at 10 mg/ml [7]: 50%
Substance: Fc-WT-PEG-α621-635cit (from UniProt P01857 104-330) (Fc fusion)

RATIO of FcSDHFSTIE-N3-DBCO-A647 with IgG as competitor [8]: 139 | MFI of FcSDHFSTIE-N3-DBCO-A647 with IgG as competitor [9]: 29500 | RATIO of FcSDHFSTIE-N3-DBCO-A647 with IgG as competitor [10]: 179 | RATIO of FcSDHFSTIE-N3-DBCO-A647 with IgG as competitor [11]: 171 | RATIO of FcSDHFSTIE-N3-DBCO-A647 with IgG as competitor [12]: 96.6 | MFI of FcSDHFSTIE-N3-DBCO-A647 with IgG as competitor [13]: 36300 | RATIO of FcSDHFSTIE-N3-DBCO-A647 with IgG as competitor [14]: 183 | MFI of FcSDHFSTIE-N3-DBCO-A647 with IgG as competitor [15]: 37900 | MFI of FcSDHFSTIE-N3-DBCO-A647 with IgG as competitor [16]: 38800 | MFI of FcSDHFSTIE-N3-DBCO-A647 with IgG as competitor [17]: 20500
Substance: human IgG (antibody)

% expression of CD107a (NK cell degranulation) [1]: 2.2%
Substance: FcLALAPG-β60-74 (from UniProt P01857 104-330) (Fc fusion)

MFI [18]: 38500
Substance: FcSDHFSTIE-N3-DBCO-A647 (from UniProt P01857 104-330)
